The values that follow come from the Immune Epitope Database (IEDB).

pIC50, pKd: −log10 of the molar value.

Experiment [1] concerns the target HLA-A*02:01. The experiment can be described thus: IEDB peptide-MHC binding, purified MHC/direct/fluorescence; filed as Kd, often an IC50 or EC50 that approximates it; ≥ and ≤ were set here for values at or beyond the usual limits of such assays.
The target of a further experiment is HLA-A*02:19. Described as above. As to conditions: source organism: Coxiella burnetii Q321.
In a further experiment the target is HLA-A*69:01. The experiment is described as above.
For another experiment, the target named is HLA-A*02:50. The experiment can be described thus: IEDB peptide-MHC binding, purified MHC/competitive/fluorescence; filed as Kd, often an IC50 or EC50 that approximates it; ≥ and ≤ were set here for values at or beyond the usual limits of such assays.
The target of the next experiment is HLA-B*40:01. The experiment is described as follows: IEDB peptide-MHC binding, purified MHC/direct/fluorescence; filed as Kd, often an IC50 or EC50 that approximates it; ≥ and ≤ were set here for values at or beyond the usual limits of such assays.
A further experiment deals with HLA-B*15:42. The experiment can be described thus: IEDB peptide-MHC binding, purified MHC/competitive/fluorescence; filed as Kd, often an IC50 or EC50 that approximates it; ≥ and ≤ were set here for values at or beyond the usual limits of such assays.
The next experiment addresses HLA-B*27:20. Described as above.
A further experiment has as its target HLA-B*45:06. The experiment is described as above.
The target in a further experiment is HLA-B*73:01. The description is as above.
A further experiment has as its target HLA-B*83:01. The experiment is described as above.
Another experiment addresses HLA-B*15:02. The description is as above. To be noted: source organism: Vibrio vulnificus CMCP6.
Another experiment concerns the target HLA-A*01:01. The experiment is described as follows: IEDB peptide-MHC binding, purified MHC/direct/fluorescence; filed as Kd, often an IC50 or EC50 that approximates it; ≥ and ≤ were set here for values at or beyond the usual limits of such assays.
Another experiment deals with HLA-A*29:02. The experiment is described as above. To be noted: source organism: Sudan ebolavirus.
The target of another experiment is HLA-A*68:23. The experiment can be described thus: IEDB peptide-MHC binding, purified MHC/competitive/fluorescence; filed as Kd, often an IC50 or EC50 that approximates it; ≥ and ≤ were set here for values at or beyond the usual limits of such assays. To be noted: source organism: Sudan ebolavirus.
For the next experiment, the target named is HLA-A*03:01. The experiment is described as follows: IEDB peptide-MHC binding, purified MHC/direct/fluorescence; filed as Kd, often an IC50 or EC50 that approximates it; ≥ and ≤ were set here for values at or beyond the usual limits of such assays.
The target in another experiment is HLA-A*11:01. The description is as above.
The target of a further experiment is HLA-A*26:02. The experiment is described as above. As to conditions: source organism: Variola virus.
In the next experiment the target is HLA-A*31:01. Described as above.
In a further experiment the target is HLA-A*68:02. The description is as above. As to conditions: source organism: Camelpox virus M-96.
Another experiment deals with HLA-B*07:02. The description is as above.
The target of a further experiment is HLA-B*08:01. The experiment is described as above.
Another experiment addresses HLA-B*08:03. The description is as above. As to conditions: source organism: Variola virus.
In a further experiment the target is HLA-B*15:01. The experiment is described as above.
In another experiment the target is HLA-B*15:17. The description is as above.
In the next experiment the target is HLA-B*18:01. Described as above.
In another experiment the target is HLA-B*46:01. Described as above.
The target in a further experiment is HLA-B*48:01. The experiment is described as above.
A further experiment deals with HLA-B*57:01. Described as above.
The target of the next experiment is HLA-B*58:01. Described as above.
Experiment [2] concerns the target HLA-A*02:01. The experiment can be described thus: IEDB peptide-MHC binding, purified MHC/competitive/fluorescence; filed as Kd, often an IC50 or EC50 that approximates it; ≥ and ≤ were set here for values at or beyond the usual limits of such assays. As to conditions: source organism: Vaccinia virus Copenhagen.
A further experiment deals with HLA-A*02:03. The experiment is described as above. As to conditions: source organism: Vaccinia virus Copenhagen.
A further experiment deals with HLA-A*26:03. The experiment is described as above. To be noted: source organism: Vaccinia virus Copenhagen.
Experiment [3] addresses HLA-A*02:01. The experiment is described as follows: IEDB peptide-MHC binding, purified MHC/competitive/fluorescence; ≥ and ≤ were set here for values at or beyond the usual limits of such assays. To be noted: source organism: Taeniopygia guttata.
For experiment [4], the target named is HLA-B*51:01. Described as above. As to conditions: source organism: Taeniopygia guttata.
In a further experiment the target is HLA-C*06:02. The experiment is described as follows: IEDB peptide-MHC binding, purified MHC/direct/fluorescence; filed as Kd, often an IC50 or EC50 that approximates it; ≥ and ≤ were set here for values at or beyond the usual limits of such assays. As to conditions: source organism: human gammaherpesvirus 4.
A further experiment deals with HLA-A*26:01. The experiment is described as above. To be noted: source organism: Giardia lamblia ATCC 50803.
The next experiment concerns the target HLA-A*30:01. Described as above. As to conditions: source organism: Giardia lamblia ATCC 50803.
In another experiment the target is HLA-B*15:09. The experiment is described as above. To be noted: source organism: Giardia lamblia ATCC 50803.
A further experiment addresses HLA-B*27:05. The description is as above. As to conditions: source organism: Giardia lamblia ATCC 50803.
The target of experiment [5] is HLA-B*51:01. The experiment is described as above. As to conditions: source organism: Giardia lamblia ATCC 50803.
[6] abbreviates: source organism: Coxiella burnetii.
[7] abbreviates: source organism: Mycobacterium tuberculosis.
Setting [8] is: source organism: Mycobacterium tuberculosis H37Ra.
[9] abbreviates: source organism: Listeria monocytogenes HPB2262.
The mark [10] stands for this setting: source organism: Sudan ebolavirus.
The mark [11] stands for this setting: source organism: Camelpox virus M-96.
The mark [12] stands for this setting: source organism: human gammaherpesvirus 4.
[13] abbreviates: source organism: Giardia lamblia ATCC 50803.

Regarding YQLGDYFFV, the pKd (as a rule, the negative decadic logarithm of the Kd, by convention in mol/L) with HLA-A*02:01 [1] (setting [6]) is 8.82; in the experiment with HLA-A*02:19 it was 8.70; in the experiment with HLA-A*69:01 (setting [6]) it was 8.89; in the experiment with HLA-A*02:50 (source organism: Coxiella burnetii Dugway 5J108-111), no less than 10.00.

LEMQHLISL: the pKd in the experiment with HLA-B*40:01 (setting [7]) is 7.86; with HLA-B*15:42 (setting [8]) it was no more than 5.30; in the experiment with HLA-B*27:20 (setting [8]) it was 5.96; in the experiment with HLA-B*45:06 (setting [8]) it was no more than 5.30.

With FETMVFPAV, the pKd with HLA-B*15:42 (setting [9]), with HLA-B*45:06 (setting [9]), in the experiment with HLA-B*73:01 (setting [9]) and in the experiment with HLA-B*83:01 (setting [9]) was no more than 5.30 throughout.

AMRVGSSIM had a pKd in the experiment with HLA-B*15:02 of 6.93.

Regarding CTSSIQYHR, the pKd in the experiment with HLA-A*01:01 (setting [10]) is no more than 4.70; with HLA-A*29:02, 5.84; with HLA-A*68:23, 8.42; with HLA-B*15:42 (setting [10]) it was no more than 5.30; with HLA-B*45:06 (setting [10]), no more than 5.30; with HLA-B*83:01 (setting [10]) it was no more than 5.30.

For the sequence GLYRLNFRR, the pKd with HLA-A*01:01 (setting [11]) was no more than 4.70; with HLA-A*03:01 (setting [11]), 6.62; with HLA-A*11:01 (setting [11]), 6.63; with HLA-A*26:02 it was no more than 4.70; with HLA-A*31:01 (setting [11]), 8.77; with HLA-A*68:02, no more than 4.70. The pKd in the experiment with HLA-A*69:01 (setting [11]), with HLA-B*07:02 (setting [11]), with HLA-B*08:01 (source organism: Variola virus), with HLA-B*08:03, with HLA-B*15:01 (setting [11]) and with HLA-B*15:17 (setting [11]) was no more than 4.70 throughout. Also, the pKd with HLA-B*18:01 (setting [11]), with HLA-B*40:01 (setting [11]), in the experiment with HLA-B*46:01 (setting [11]), in the experiment with HLA-B*48:01 (setting [11]), with HLA-B*57:01 (setting [11]) and in the experiment with HLA-B*58:01 (setting [11]) was no more than 4.70 each time. For the same sequence, the values for the pKd in the experiment with HLA-A*02:01 [2], with HLA-A*02:03 and with HLA-A*26:03 were 6.02, no more than 4.70 and no more than 4.70, respectively.

For the sequence LLYEVDGDV, the figures for the pKd with HLA-A*02:01 [1] (setting [7]), in the experiment with HLA-A*69:01 (setting [7]) and in the experiment with HLA-A*02:50 (source organism: Mycobacterium tuberculosis variant bovis BCG str. Pasteur 1173P2) were no more than 4.70, no more than 4.70 and 5.95, respectively.

For the sequence FLLPILSQI, the pIC50 (usually the IC50 on a negative log10 scale, so that one unit is a factor of ten) in the experiment with HLA-A*02:01 [3] is 7.28; with HLA-B*51:01 [4], no more than 4.70.

As to RRYASQTEL, the pKd is 7.68 with HLA-C*06:02; no more than 5.30 in the experiment with HLA-B*15:42 (setting [12]); 9.70 with HLA-B*27:20 (setting [12]); no more than 5.30 with HLA-B*45:06 (setting [12]); no more than 5.30 with HLA-B*83:01 (setting [12]).

KRPYVFVAA had a pKd with HLA-B*73:01 (source organism: Yersinia enterocolitica subsp. enterocolitica 8081) of 7.16.

As to RPALVVDTP, the pKd in the experiment with HLA-A*01:01 (setting [13]), in the experiment with HLA-A*02:01 [1] (setting [13]), with HLA-A*03:01 (setting [13]), with HLA-A*11:01 (setting [13]), with HLA-A*26:01 and with HLA-A*30:01 was no more than 4.70 throughout. Moreover, the pKd with HLA-A*31:01 (setting [13]), with HLA-A*69:01 (setting [13]), with HLA-B*07:02 (setting [13]), with HLA-B*08:01 (setting [13]), in the experiment with HLA-B*15:01 (setting [13]) and with HLA-B*15:09 was no more than 4.70 in each case. The negative-log Kd (pKd) with HLA-B*15:17 (setting [13]), with HLA-B*18:01 (setting [13]), with HLA-B*27:05, in the experiment with HLA-B*40:01 (setting [13]), in the experiment with HLA-B*46:01 (setting [13]) and in the experiment with HLA-B*48:01 (setting [13]) was no more than 4.70 in each case. Besides, the pKd with HLA-B*51:01 [5], in the experiment with HLA-B*57:01 (setting [13]) and with HLA-B*58:01 (setting [13]) was no more than 4.70 in each case.
